In patent US20260209364A1 (NB HEALTH LABORATORY, published 2026):

T1: human CCR7 (human, UniProt P32248 25-378)
T1 sequence: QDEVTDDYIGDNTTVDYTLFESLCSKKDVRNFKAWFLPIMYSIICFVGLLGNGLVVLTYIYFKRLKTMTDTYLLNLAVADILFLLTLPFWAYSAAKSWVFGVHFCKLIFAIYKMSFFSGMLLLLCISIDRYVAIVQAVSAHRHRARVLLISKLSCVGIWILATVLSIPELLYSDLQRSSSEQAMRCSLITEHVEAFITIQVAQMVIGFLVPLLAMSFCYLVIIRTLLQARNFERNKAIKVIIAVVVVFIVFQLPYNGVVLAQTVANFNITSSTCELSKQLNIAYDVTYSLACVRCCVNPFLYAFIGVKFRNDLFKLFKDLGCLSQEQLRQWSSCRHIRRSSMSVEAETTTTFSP


Assays:
[1] = target: T1, human CCR7; assay: cell-based or functional assay
[2] = target: T1, human CCR7; assay: cell-based or functional assay; remark: listed apart in the source

| Binder | IC50 (nM), inhibition of intracellular Ca2+ signaling in human CCR7 gene-transfected cells stimulated with 5x10^-8 M CCL21 [1] [nM] | IC50, inhibition of CCL19-dependent cell migration of Granta-519 cells [2] [nM] | IC50, inhibition of CCL19-induced intracellular Ca2+ signaling in hCCR7 gene-transfected cells [2] [nM] | IC50, inhibition of CCL21-induced intracellular Ca2+ signaling in hCCR7 gene-transfected cells [2] [nM] | half maximal inhibitory concentration (IC50), CCL21-induced intracellular Ca2+ signaling in MJ cells [2] [nM] |
| --- | --- | --- | --- | --- | --- |
| humanized anti-CCR7 antibody NB007-01 (antibody, human IgG1, kappa, V domains shown) VH: EVQLVQSGPEVVKPGASVKLSCKASGYSFTGYYMHWVKQAPGQGLEWIGRVNPNQGGTSYNKKFKVRVTITVDRSISTAYMEFSRLRSDDTVVYYCARSESNNFYAMDYWGQGTSVTVSS VL: DIVMTQSPLSLSVTPGQPASISCRSSQSLVHSNGNTYLCWYLQKPGQSPQLLIYRVSNKFSGVPDRFSGSGSGTDFTLKISRVEAEDVGVYYCFQGSHVPHTFGQGTKVEIKR | 18.2 | 25.5 | 21.4 | 17.8 | 14.8 |
| humanized anti-CCR7 antibody NB007-02 (antibody, human IgG1, kappa, V domains shown) VH: EVQLVQSGPEVVKPGASVKLSCKASGYSFTGYYMHWVKQAPGQGLEWIGRVNPNQGGTSYNKKFKVRVTLTVDRSISTAYMEFSRLRSDDTVVYYCARSESNNFYAMDYWGQGTSVTVSS VL: DIVMTQSPLSLSVTPGQPASISCRSSQSLVHSNGNTYLCWYLQKPGQSPQLLIYRVSNRFSGVPDRFSGSGSGTDFTLKISRVEAEDVGVYYCFQGSHVPHTFGQGTKVEIKR | 16.4 |  |  |  |  |
| chimeric anti-CCR7 antibody VH0/VL0 (antibody, human IgG1, kappa, V domains shown) VH: EVQLQQSGPDLVKPGASVKISCKASGYSFTGYYMHWVKQSHGKSLEWIGRVNPNNGGTSYNKKFKVKAILTVDRSSSTAYMEFRSLTLEDSAVYYCARSESNNFYAMDYWGQGKSVTVSS VL: DILMTQTPLSLPVSLGDQVSISCRSSQSLVHSNGNTYLCWYLQKPGQSPKLLIYRVSNRFSGVPDRFSGSGSGTDFTLKISRVEAEDLGVYFCFQGSHVPHTFGSGTKLEIKR | 16.2 |  |  |  |  |
| humanized anti-CCR7 antibody NB007-03 (antibody, human IgG1, kappa, V domains shown) VH: EVQLVQSGPEVVKPGASVKLSCKASGYSFTGYYMHWVKQAPGQGLEWIGRVNPNNGGTSYNKKFKVRVTLTVDRSISTAYMEFSRLRSDDTVVYYCARSESNNFYAMDYWGQGTSVTVSS VL: DIVMTQTPLSLSVTLGQPASISCRSSQSLVHSNGNTYLCWYLQKPGQSPQLLIYRVSNRFSGVPDRFSGSGSGTDFTLKISRVEAEDVGVYYCFQGSHVPHTFGSGTKVEIKR | 12.5 |  |  |  |  |
